Target: the molecule itself
Experiment: SEC; Superdex 200pg (124 mL), 500 uL of protein at 2.5 mg/mL, 0.5 mL/min, 10 mM sodium phosphate pH 7.2, 150 mM NaCl; fraction of dimer against monomer

| Protein | stoichiometry N |
| --- | --- |
| Aldehyde deformylating oxygenase from Nostoc punctiforme PCC 73102, C71S mutant (enzyme, UniProt B2J1M1 1-232, looked up, Aldehyde deformylating oxygenase of Nostoc punctiforme PCC 73102; codon-optimised synthetic gene; Same construct as m1 with the mutation; source: E. coli BL21(DE3)pLysS (pET-15b-AD variant), purified (Ni-agarose, dialysis)) MQQLTDQSKELDFKSETYKDAYSRINAIVIEGEQEAHENYITLAQLLPESHDELIRLSKMESRHKKGFEASGRNLAVTPDLQFAKEFFSGLHQNFQTAAAEGKVVTCLLIQSLIIECFAIAAYNIYIPVADDFARKITEGVVKEEYSHLNFGEVWLKEHFAESKAELELANRQNLPIVWKMLNQVEGDAHTMAMEKDALVEDFMIQYGEALSNIGFSTRDIMRLSAYGLIGA | 2 |
| Aldehyde deformylating oxygenase from Nostoc punctiforme PCC 73102, C71A mutant (enzyme, UniProt B2J1M1 1-232, looked up, Aldehyde deformylating oxygenase of Nostoc punctiforme PCC 73102; codon-optimised synthetic gene; Same construct as m1 with the mutation; source: E. coli BL21(DE3)pLysS (pET-15b-AD variant), purified (Ni-agarose, dialysis)) MQQLTDQSKELDFKSETYKDAYSRINAIVIEGEQEAHENYITLAQLLPESHDELIRLSKMESRHKKGFEAAGRNLAVTPDLQFAKEFFSGLHQNFQTAAAEGKVVTCLLIQSLIIECFAIAAYNIYIPVADDFARKITEGVVKEEYSHLNFGEVWLKEHFAESKAELELANRQNLPIVWKMLNQVEGDAHTMAMEKDALVEDFMIQYGEALSNIGFSTRDIMRLSAYGLIGA | 2 |
